These results are taken from patent US20250242041A1 (Seagen, published 2025).

One test has as its target T1, recombinant human αvβ3 (human, UniProt P06756 31-992; P05106 27-718).
T1 construct: Bought from R&D Systems
Description: ELISA on coated recombinant integrin. The method, then: (§1) 96-well Maxisorb plates (Nunc) were coated overnight at 4° C. with 1 ug/ml of recombinant human αvβ1, αvβ3, αvβ5, αvβ6 and αvβ8 (R&D Systems, MN) diluted in 50 mM carbonate buffer (Sigma, MO). Plates were washed with PBS+0.05% Tween 20 (PBS-T). Wash buffer was removed and plates were blocked for 2 hours at room temperature in TBS blocking buffer (TBS, 0.05% Tween 20, 1% BSA). Plates were washed and then incubated for 2 hours with humanized 2A2 antibody diluted in TBS binding buffer (TBS, 0.05% Tween 20, 1% BSA, 1 mM MnCl₂) at concentrations that ranged from 1 pM-67 nM (10 ug/ml). Plates were washed, incubated for 1 hour with 1:5000 dilution of anti-human Fc-HRP (Jackson ImmunoResearch, PA), washed, and then incubated with TMB substrate for 5 minutes. The reaction was stopped with 1 M HCl. Absorbance at 450 nm was read using a Fusion HT plate reader (Perkin Elmer, Waltham, MA).
In general terms: ELISA stands for enzyme-linked immunosorbent assay.

Another test concerns the target T2, recombinant human αvβ5 (human, UniProt P06756 31-992; P18084 24-719).
T2 construct: Bought from R&D Systems
The experiment in a line: ELISA on coated recombinant integrin. The method, then: as §1

Another test has as its target T3, recombinant human αvβ8 (human, UniProt P06756 31-992; P26012 43-684).
T3 construct: Bought from R&D Systems
Description: ELISA on coated recombinant integrin. As to the method: as §1

The target of test [1] is T4, recombinant human αvβ6 (R&D Systems) (human, UniProt P06756 31-992; P18564 22-707).
T4 construct: Bought from R&D Systems, coated on the ELISA plate
Description: ELISA on coated recombinant integrin. As to the method: as §1

For a further test, the target named is T5, recombinant human αvβ1 (human, UniProt P06756 31-992; P05556 21-728).
T5 construct: Bought from R&D Systems
Description: ELISA on coated recombinant integrin. The method, then: as §1

Test [2] concerns the target T6, cyno αvβ6 on 293F:cynoβ6 cells (human;Macaca fascicularis, UniProt P06756 31-1048; A0A2K5TZ36 22-787).
T6 chain 1: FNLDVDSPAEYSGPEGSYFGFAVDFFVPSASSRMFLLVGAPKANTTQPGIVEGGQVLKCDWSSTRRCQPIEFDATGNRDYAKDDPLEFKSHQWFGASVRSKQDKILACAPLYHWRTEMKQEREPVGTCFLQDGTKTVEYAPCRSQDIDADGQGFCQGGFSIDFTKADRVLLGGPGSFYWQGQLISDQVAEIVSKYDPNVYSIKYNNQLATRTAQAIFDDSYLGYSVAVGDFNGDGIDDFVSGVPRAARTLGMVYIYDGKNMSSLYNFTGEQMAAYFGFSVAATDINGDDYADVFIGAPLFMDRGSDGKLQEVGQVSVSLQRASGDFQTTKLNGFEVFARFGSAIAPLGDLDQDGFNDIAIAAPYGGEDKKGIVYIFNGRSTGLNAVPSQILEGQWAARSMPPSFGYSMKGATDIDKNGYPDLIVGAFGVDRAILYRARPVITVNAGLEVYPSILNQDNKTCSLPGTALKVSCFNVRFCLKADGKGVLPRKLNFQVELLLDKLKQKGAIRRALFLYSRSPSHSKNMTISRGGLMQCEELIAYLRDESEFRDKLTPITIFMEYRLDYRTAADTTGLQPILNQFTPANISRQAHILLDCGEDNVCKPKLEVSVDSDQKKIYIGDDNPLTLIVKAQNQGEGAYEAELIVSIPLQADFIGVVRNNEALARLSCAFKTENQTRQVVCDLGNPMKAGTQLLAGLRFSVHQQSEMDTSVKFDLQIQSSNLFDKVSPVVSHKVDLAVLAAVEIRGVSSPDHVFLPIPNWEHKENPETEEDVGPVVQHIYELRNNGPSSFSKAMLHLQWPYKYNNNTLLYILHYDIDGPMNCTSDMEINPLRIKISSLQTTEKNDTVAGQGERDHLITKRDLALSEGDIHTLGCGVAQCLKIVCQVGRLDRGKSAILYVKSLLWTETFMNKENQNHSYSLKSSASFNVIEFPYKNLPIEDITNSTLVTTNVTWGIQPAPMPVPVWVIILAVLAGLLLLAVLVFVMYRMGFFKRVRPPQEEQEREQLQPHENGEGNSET
T6 chain 2: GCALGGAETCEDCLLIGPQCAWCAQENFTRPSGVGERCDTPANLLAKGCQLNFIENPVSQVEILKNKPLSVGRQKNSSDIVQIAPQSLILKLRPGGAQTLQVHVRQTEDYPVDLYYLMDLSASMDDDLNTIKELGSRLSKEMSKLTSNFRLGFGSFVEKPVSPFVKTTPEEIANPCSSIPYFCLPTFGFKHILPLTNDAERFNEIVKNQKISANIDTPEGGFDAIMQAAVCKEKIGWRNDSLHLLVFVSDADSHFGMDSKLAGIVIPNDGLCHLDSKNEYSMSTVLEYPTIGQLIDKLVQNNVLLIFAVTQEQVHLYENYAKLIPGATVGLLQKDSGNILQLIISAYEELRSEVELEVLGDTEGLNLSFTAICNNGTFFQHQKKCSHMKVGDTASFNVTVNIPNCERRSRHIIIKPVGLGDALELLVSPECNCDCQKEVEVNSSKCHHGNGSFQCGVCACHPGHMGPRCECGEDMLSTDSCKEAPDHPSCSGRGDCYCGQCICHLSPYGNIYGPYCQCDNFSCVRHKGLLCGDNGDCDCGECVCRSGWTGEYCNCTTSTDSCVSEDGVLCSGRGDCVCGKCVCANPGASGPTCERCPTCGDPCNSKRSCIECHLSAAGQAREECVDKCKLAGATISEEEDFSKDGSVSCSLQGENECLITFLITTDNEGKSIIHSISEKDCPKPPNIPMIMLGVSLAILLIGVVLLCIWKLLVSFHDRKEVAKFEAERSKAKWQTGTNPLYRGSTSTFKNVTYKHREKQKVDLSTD
The experiment in a line: saturation binding on 293F cells; AF647-labeled.

As a reminder, the EC50 is the concentration that produces a half-maximal response. The low end stands for an effect from little substance, the high end for a need for much substance.

T2 sequence (P18084 24-719 limits assumed, one chain of several): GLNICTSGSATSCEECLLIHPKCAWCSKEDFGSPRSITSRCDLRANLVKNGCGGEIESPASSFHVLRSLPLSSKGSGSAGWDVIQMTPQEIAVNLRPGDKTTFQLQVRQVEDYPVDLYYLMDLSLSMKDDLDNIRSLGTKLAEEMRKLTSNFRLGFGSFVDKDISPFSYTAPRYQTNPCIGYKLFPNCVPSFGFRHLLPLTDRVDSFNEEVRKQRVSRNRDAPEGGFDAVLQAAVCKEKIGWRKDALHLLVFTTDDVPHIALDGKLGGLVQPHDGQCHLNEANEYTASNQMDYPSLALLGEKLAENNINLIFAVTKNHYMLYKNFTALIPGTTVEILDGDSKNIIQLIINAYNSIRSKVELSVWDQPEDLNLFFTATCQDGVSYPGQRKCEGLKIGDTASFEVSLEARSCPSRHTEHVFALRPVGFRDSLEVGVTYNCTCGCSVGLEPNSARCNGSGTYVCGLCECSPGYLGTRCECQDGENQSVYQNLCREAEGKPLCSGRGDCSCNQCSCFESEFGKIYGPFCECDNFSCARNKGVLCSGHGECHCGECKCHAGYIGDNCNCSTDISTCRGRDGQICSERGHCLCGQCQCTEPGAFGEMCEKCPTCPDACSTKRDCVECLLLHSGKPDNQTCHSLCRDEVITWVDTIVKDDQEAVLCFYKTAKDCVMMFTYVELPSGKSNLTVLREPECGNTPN
T3 sequence (P26012 43-684 limits assumed, one chain of several): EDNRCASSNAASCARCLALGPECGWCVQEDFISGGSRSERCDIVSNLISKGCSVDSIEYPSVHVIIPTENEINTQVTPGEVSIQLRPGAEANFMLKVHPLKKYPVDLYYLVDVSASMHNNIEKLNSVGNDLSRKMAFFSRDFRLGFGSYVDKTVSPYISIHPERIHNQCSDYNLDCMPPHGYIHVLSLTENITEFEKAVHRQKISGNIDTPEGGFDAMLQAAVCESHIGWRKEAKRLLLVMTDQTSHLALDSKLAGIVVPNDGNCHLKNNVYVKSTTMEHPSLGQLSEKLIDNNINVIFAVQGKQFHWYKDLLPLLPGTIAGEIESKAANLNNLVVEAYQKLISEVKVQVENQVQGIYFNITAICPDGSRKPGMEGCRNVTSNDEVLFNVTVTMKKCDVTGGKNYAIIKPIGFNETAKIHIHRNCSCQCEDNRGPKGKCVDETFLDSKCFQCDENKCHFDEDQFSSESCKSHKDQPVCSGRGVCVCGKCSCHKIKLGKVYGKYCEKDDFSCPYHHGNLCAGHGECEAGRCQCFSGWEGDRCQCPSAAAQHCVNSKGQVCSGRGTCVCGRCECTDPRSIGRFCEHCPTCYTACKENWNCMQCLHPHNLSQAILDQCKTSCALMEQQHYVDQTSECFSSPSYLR
T1 sequence (P05106 27-718 limits assumed, one chain of several): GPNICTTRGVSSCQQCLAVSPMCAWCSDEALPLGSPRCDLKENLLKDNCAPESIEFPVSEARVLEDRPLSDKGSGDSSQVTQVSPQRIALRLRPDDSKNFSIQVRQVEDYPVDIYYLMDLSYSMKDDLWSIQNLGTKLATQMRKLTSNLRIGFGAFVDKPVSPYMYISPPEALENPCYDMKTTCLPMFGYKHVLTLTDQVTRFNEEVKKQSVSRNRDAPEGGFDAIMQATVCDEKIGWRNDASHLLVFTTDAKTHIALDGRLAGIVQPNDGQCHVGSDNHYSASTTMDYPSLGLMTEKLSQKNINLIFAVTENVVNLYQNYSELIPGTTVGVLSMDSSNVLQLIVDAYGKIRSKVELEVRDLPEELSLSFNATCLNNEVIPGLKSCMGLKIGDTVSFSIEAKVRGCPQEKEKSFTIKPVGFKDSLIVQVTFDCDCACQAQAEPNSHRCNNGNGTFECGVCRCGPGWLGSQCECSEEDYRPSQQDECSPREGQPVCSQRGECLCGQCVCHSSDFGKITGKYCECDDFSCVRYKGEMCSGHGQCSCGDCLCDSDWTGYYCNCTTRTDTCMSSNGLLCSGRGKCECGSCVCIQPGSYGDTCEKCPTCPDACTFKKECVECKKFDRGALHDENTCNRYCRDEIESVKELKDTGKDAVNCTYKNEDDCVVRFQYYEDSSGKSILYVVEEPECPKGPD
T5 sequence (P05556 21-728 limits assumed, one chain of several): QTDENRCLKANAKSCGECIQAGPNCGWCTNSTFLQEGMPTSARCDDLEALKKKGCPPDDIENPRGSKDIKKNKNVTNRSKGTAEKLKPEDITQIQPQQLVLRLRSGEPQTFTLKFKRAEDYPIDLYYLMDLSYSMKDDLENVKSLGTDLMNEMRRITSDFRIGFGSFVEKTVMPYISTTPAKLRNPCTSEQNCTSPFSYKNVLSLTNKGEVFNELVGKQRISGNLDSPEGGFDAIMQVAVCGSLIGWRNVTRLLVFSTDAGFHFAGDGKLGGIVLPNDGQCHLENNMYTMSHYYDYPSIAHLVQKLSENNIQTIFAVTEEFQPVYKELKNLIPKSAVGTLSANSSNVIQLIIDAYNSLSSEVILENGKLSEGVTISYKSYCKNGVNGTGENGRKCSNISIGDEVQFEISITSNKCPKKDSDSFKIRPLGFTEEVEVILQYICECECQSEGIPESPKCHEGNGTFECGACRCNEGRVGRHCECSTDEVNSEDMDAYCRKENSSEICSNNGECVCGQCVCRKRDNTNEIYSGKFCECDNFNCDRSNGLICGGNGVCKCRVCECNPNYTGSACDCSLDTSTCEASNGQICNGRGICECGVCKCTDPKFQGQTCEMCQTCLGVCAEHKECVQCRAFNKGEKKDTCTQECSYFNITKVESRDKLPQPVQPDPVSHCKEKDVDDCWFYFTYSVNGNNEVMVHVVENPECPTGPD

B1: h2A2 HCLG humanized antibody (antibody, human IgG1, kappa, V domains shown)
VH: QFQLVQSGAEVKKPGASVKVSCKASGYSFTDYNVNWVRQAPGQGLEWIGVINPKYGTTRYNQKFKGRATLTVDKSTSTAYMELSSLRSEDTAVYYCTRGLNAWDYWGQGTLVTVSS
VL: DIQMTQSPSSLSASVGDRVTITCGASENIYGALNWYQQKPGKAPKLLIYGATNLEDGVPSRFSGSGSGRDYTFTISSLQPEDIATYYCQNVLTTPYTFGQGTKLEIKR
notes: Labelled with AlexaFluor-647 in the saturation assay; also called humanized 2A2 HCLG
On to B1, for which the binding result is given as “no binding (tested: 1 pM-67 nM (10 ug/ml))” with recombinant human αvβ3; “no binding (tested: 1 pM-67 nM (10 ug/ml))” with recombinant human αvβ5; “no binding (tested: 1 pM-67 nM (10 ug/ml))” with recombinant human αvβ8; “binds” in test [1]; “no binding (tested: 1 pM-67 nM (10 ug/ml))” with recombinant human αvβ1. In test [2], this molecule had a 50% effective concentration (EC50) of 0.2 nM.
